Publication PMC2673435

Experiments:
Assay in all cases: fluorescence polarization
[1] = target: RPA•2(MM2) (Saccharomyces cerevisiae, UniProt P22336;P26754;P26755 1-621;1-273;1-122, D80A;T82A;E103A;D104A;D158A;E162A)
[2] = target: RPA•2(ERK) (Saccharomyces cerevisiae, UniProt P22336;P26754;P26755 1-621;1-273;1-122, I96L;E97A;R99A;K100A)
[3] = target: RPA•2(MM1) (Saccharomyces cerevisiae, UniProt P22336;P26754;P26755 1-621;1-273;1-122, D80A;T82A;I96L;E97A;R99A;K100A;K146A;K147A)
[4] = target: RPA•2(DT) (Saccharomyces cerevisiae, UniProt P22336;P26754;P26755 1-621;1-273;1-122, D80A;T82A)
Chain of RPA•2(DT) (P22336 whole entry, chain 1 of 3): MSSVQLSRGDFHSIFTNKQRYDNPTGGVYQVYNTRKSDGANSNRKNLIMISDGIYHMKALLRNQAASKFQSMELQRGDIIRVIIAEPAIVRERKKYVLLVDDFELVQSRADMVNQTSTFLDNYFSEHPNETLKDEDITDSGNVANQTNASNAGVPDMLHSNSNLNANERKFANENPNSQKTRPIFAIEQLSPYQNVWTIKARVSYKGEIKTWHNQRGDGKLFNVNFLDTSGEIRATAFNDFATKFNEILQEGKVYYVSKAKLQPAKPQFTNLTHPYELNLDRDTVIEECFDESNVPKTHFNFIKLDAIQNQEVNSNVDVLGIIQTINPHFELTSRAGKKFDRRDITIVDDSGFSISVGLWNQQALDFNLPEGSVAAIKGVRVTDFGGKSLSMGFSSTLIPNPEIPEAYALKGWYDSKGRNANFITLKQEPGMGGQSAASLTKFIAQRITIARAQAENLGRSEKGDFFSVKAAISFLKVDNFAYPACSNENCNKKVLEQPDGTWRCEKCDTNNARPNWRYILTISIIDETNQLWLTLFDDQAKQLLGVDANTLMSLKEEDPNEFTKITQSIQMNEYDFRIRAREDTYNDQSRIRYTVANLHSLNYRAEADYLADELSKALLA
Chain of RPA•2(DT) (P26754 whole entry D80A/T82A, chain 2 of 3): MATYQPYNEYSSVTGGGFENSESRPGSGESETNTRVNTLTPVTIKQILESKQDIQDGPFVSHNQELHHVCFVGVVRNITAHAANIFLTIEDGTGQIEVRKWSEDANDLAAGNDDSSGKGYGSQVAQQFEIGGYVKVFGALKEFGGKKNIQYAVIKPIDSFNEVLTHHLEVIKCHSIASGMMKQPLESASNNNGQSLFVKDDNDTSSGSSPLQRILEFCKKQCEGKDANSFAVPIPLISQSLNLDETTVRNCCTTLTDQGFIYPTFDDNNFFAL
Chain of RPA•2(DT) (P26755 whole entry, chain 3 of 3): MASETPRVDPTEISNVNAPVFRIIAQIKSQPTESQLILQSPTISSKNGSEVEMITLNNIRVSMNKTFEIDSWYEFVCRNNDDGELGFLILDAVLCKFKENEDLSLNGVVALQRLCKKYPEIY

[5] = target: RPA•2(WF) (Saccharomyces cerevisiae, UniProt P22336;P26754;P26755 1-621;1-273;1-122, W101A;F143A)
Chain of RPA•2(WF) (P22336 whole entry, chain 1 of 3): as the sequence (P22336 whole entry, chain 1 of 3) above
Chain of RPA•2(WF) (P26754 whole entry W101A/F143A, chain 2 of 3): as the sequence (P26754 whole entry D80A/T82A, chain 2 of 3) above, with A80D, A82T, W101A, F143A counted along it
Chain of RPA•2(WF) (P26755 whole entry, chain 3 of 3): as the sequence (P26755 whole entry, chain 3 of 3) above

Chain of RPA•2(ERK) (P22336 whole entry, chain 1 of 3): as the sequence (P22336 whole entry, chain 1 of 3) above
Chain of RPA•2(ERK) (P26754 whole entry I96L/E97A/R99A/K100A, chain 2 of 3): as the sequence (P26754 whole entry D80A/T82A, chain 2 of 3) above, with A80D, A82T, I96L, E97A, R99A, K100A counted along it
Chain of RPA•2(ERK) (P26755 whole entry, chain 3 of 3): as the sequence (P26755 whole entry, chain 3 of 3) above
Chain of RPA•2(MM1) (P22336 whole entry, chain 1 of 3): as the sequence (P22336 whole entry, chain 1 of 3) above
Chain of RPA•2(MM1) (P26754 whole entry D80A/T82A/I96L/E97A/R99A/K100A/K146A/K147A, chain 2 of 3): as the sequence (P26754 whole entry D80A/T82A, chain 2 of 3) above, with I96L, E97A, R99A, K100A, K146A, K147A counted along it
Chain of RPA•2(MM1) (P26755 whole entry, chain 3 of 3): as the sequence (P26755 whole entry, chain 3 of 3) above
Chain of RPA•2(MM2) (P22336 whole entry, chain 1 of 3): as the sequence (P22336 whole entry, chain 1 of 3) above
Chain of RPA•2(MM2) (P26754 whole entry D80A/T82A/E103A/D104A/D158A/E162A, chain 2 of 3): as the sequence (P26754 whole entry D80A/T82A, chain 2 of 3) above, with E103A, D104A, D158A, E162A counted along it
Chain of RPA•2(MM2) (P26755 whole entry, chain 3 of 3): as the sequence (P26755 whole entry, chain 3 of 3) above

B1: dT30 (ssDNA)
DNA: TTTTTTTTTTTTTTTTTTTTTTTTTTTTTT
**Q.** Does B1 bind [1]?
**A.** binds

**Q.** Does B1 bind [2]?
**A.** binds

**Q.** Does B1 bind [3]?
**A.** binds

**Q.** Does B1 bind [4]?
**A.** binds

**Q.** What about the Ka [5] of the same binder?
**A.** 3.85e+07 M⁻¹
